Laboratory results published in PMC13046825, “A gated hydrophobic funnel within BAX binds bioactive lipids to potentiate pro-apoptotic function” (Nature Communications, 2024).
pEC50: −log10 of the molar value. One block for each compound: values may come before it.

What was measured:
[1] = target: T1, BAX (Homo sapiens, UniProt Q07812); assay: 1H-15N HSQC NMR chemical shift perturbation; MST; assay type: binding; parameters: 15N-labeled BAX WT
[2] = target: T1, BAX; assay: microscale thermophoresis; assay type: binding; parameters: recombinant human BAX WT
[3] = target: T1, BAX; assay: microscale thermophoresis; also 1H-15N HSQC NMR, FLAMBE, LUV permeabilization; assay type: binding; parameters: recombinant human BAX, without a tag or exogenous residues (Alexa Fluor 647-labeled for MST)
[4] = target: T2, BAX^2S (Homo sapiens, UniProt Q07812, C62S/C126S); assay: thermal shift, FLAMBE and LUV permeabilization with purified BAX^2S (activation); assay type: biochemical
T2 construct: recombinant human BAX, cysteine-replacement mutant

[5] = target: 5-TAMRA labeled BAK-BH3 peptide; assay: FLAMBE (fluorescence polarisation); details: BAKTAMRA 50 nM, read at 60 min, read off a plot

T1 sequence (Q07812 whole entry): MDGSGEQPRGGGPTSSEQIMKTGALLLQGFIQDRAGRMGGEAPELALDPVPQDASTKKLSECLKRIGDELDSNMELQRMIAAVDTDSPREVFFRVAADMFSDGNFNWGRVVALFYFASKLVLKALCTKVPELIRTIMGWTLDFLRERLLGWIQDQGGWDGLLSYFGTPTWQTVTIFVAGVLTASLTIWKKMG
T2 sequence (Q07812 whole entry C62S/C126S): as the sequence (Q07812 whole entry) above, with C62S, C126S counted along it

Compound: CCCCCC/C=C/C=O [2t9, 2t-nonenal]
1H-15N HSQC NMR chemical shift perturbation; MST [1]: nonenal and especially pentenal interacted with several accessible regions of BAX

Compound: CCCCCCCC/C=C/C=O [2t11, 2t-undecenal]
microscale thermophoresis [2]: When subjected to MST, BAX^WT exhibited altered thermophoresis with each of the alkenals

Compound: CCCCCCCCC/C=C/C=O [2t12, 2t-dodecenal]
microscale thermophoresis [2]: When subjected to MST, BAX^WT exhibited altered thermophoresis with each of the alkenals

The next lines start with results.

pEC50 [3]: 6.74
Compound: CCCCCCCCCCCCC/C=C/C=O [2t16, 2-trans-hexadecenal]
thermal shift, FLAMBE and LUV permeabilization with purified BAX^2S (activation) [4]: BAX^2S remained sensitive to hexadecenal-mediated changes in melting temperature, pore formation, and synergy with BIM‑BH3 peptide

response ([5]; BAXα8 225 nM, 2t16 4.5 μM, no BIM-BH3): 200 mP | response ([5]; BAXα8 225 nM, BIM-BH3 0.15 μM, 2t16 4.5 μM): 260 mP | response ([5]; BAXα8 225 nM, BIM-BH3 0.15 μM, no 2t16): 260 mP | response ([5]; BAXα8 225 nM, no BIM-BH3, no 2t16): 200 mP
Compound: recombinant human BAX, wild type (from UniProt Q07812) L59C; C62S; C126S; L162C

response ([5]; BAXP168G 65 nM, 2t16 3 μM, no BIM-BH3): 240 mP | response ([5]; BAXP168G 65 nM, BIM-BH3 0.15 μM, 2t16 3 μM): 300 mP | response ([5]; BAXP168G 65 nM, BIM-BH3 0.15 μM, no 2t16): 310 mP | response ([5]; BAXP168G 65 nM, no BIM-BH3, no 2t16): 260 mP
Compound: recombinant human BAX, wild type (from UniProt Q07812) P168G
